Drawing on patent publication US6034212, this text covers IC50 and concentration required to partially compete for binding for two molecules.

Ends that are not written are not given here. * marks the point of attachment. Biotin = O=C1N[C@H]2[C@H](CS[C@H]2CCCCC(=O)*)N1

Assay [1] has as its target GST-WW-YAP fusion protein (WW domain of human YAP in pGEX-2TK) (human). The assay can be described thus: competition of a fixed concentration of labelled GST-WW-YAP on blotted GST-…, densitometry (data not shown).
In assay [2] the target is GST-SH3-Yes fusion protein (Gallus gallus (Chicken)) (UniProt P09324). The assay can be described thus: competition of labeled GST-YES-SH3 binding to blotted TrpE-YAP65.

B1: unlabelled decapeptide biotin-… containing the PY motif (peptide)
peptide: Biotin-GTPPPPYTVG
Broadly, the IC50 is the concentration at which inhibition is half-maximal. Low readings indicate greater potency in that assay, high ones weaker potency in that assay. B1 displayed an IC50 in assay [1] of 750 nM.

B2: PLAP peptide (peptide)
peptide: ISQSAPVKQPPPLAPQSPQGGV
In turn, B2 returned a concentration required to partially compete for binding in assay [2] of 200 µM.
